Assays:
[1] = target: T1, LjbZIP10 (Lonicera japonica, UniProt A0A4Y1JSG2 1-361); assay: EMSA; 40 fmol biotin probe, 15 fmol protein, 0 or 4 pmol competitor, room temperature 20 min, Pierce LightShift kit 20148; binding buffer, salt and pH not stated; conditions: protein: recombinant; tags: GST (pGEX-4T-1); chain copies: 2; blunt
T1 sequence: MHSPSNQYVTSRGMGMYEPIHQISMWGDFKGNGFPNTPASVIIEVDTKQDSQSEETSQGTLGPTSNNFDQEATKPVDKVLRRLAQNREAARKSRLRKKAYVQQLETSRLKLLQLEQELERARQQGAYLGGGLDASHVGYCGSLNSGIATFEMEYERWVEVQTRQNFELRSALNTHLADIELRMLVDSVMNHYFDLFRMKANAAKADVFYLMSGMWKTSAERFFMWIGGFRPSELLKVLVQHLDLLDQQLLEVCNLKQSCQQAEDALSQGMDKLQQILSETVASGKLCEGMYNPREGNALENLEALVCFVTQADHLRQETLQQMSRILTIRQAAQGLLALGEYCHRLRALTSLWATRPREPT

[2] = target: T2, LjbZIP8 (Lonicera japonica, UniProt A0A4Y1JSE6 1-144); assay: EMSA; inhibited by unlabelled probe (200x in legend; 4 pmol vs 40 fmol in Methods); 40 fmol biotin probe, 15 fmol protein, 0 or 4 pmol competitor, room temperature 20 min, Pierce LightShift kit 20148; binding buffer, salt and pH not stated; conditions: protein: recombinant; tags: GST (pGEX-4T-1); chain copies: 2; blunt
T2 sequence: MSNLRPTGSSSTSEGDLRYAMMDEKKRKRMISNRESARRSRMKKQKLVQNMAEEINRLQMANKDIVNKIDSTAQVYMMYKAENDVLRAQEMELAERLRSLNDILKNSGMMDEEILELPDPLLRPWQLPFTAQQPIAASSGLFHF

B1: LjPAL2 G-box probe (dsDNA)
DNA 1: CTCTCCTGTCCACGTGTCATCAAC
DNA 2: GTTGATGACACGTGGACAGGAGAG
B1: no binding [1]; binds [2].

From article PMC5502268, “DNA Methylation Influences Chlorogenic Acid Biosynthesis in Lonicera japonica by Mediating LjbZIP8 to Regulate Phenylalanine Ammonia-Lyase 2 Expression”
